Experimental data published in patent US5792640.

What was measured:
[1] = target: ZF-Sp1C (synthetic construct) (UniProt P08047); assay: EMSA; details: CITED ref 34; DNA-RNA hybrid; cited from earlier work
[2] = tested on: ZF-QQR (synthetic construct); assay: EMSA; details: CITED ref 34; exact hybrid used in cited work not given; cited from earlier work
[3] = tested on: ZF-QQR-FN (consensus zinc fingers-FokI cleavage domain fusion) (synthetic construct); assay: EMSA; details: apparent Kd
[4] = tested on: ZF-QQR-FN (consensus zinc fingers-FokI cleavage domain fusion) (synthetic construct); assay: cleavage_in_vitro; details: DNA strand cleaved, ~100-fold slower than duplex; RNA strand not cleaved

Sequence of ZF-Sp1C (synthetic construct) (P08047 626-708): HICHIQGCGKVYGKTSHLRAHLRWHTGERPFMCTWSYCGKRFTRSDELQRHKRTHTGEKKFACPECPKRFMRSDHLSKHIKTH

In the case of GGGGCGGGG [Sp1C site DNA-RNA hybrid], the Kd [1] is given as 40 nM.

In the case of “GAGCTCCTTTGGATCCAAGCTTCCCGGGGAAGAATTCGAGGAGGCTCTCGAGGTCGACTTCCTCTAGAGGTACC / GGUACCUCUAGAGGAAGUCGACCUCGAGAGCCUCCUCGAAUUCUUCCCCGGGAAGCUUGGAUCCAAACCAGCUC [QQR site DNA-RNA hybrid]”, the Kd [2] is given as 2.8 nM, the Kd [3] is given as 3 nM and the activity [4] is given as 1%.
